Measured values published in publication PMC7721868 (Scientific Reports, 2020).

B1: GST-fusion protein containing only the Habc domain (1–146) of Stx3 (domain or fragment, rat, UniProt Q08849 1-146, looked up)
chain: MKDRLEQLKAKQLTQDDDTDEVEIAIDNTAFMDEFFSEIEETRLNIDKISEHVEEAKKLYSIILSAPIPEPKTKDDLEQLTTEIKKRANNVRNKLKSMEKHIEEDEVRSSADLRIRKSQHSVLSRKFVEVMTKYNEAQVDFRERSK
notes: syntaxin 3 (Stx3), rat, N-terminal region with the Habc domain, residues 1-146; Cloned into pGEX-4T-3, which by my knowledge puts GST at the N-terminus; also called GST-Stx3-Habc; GST-Stx3-1–146; source: E. coli Rosetta 2, purified (glutathione agarose, eluted with glutathione, dialyzed)
B2: GST fusion protein of the constitutively open mutant of cytoplasmic region Stx3 (L165A/E166A) (domain or fragment, rat, UniProt Q08849 1-265, looked up)
chain: MKDRLEQLKAKQLTQDDDTDEVEIAIDNTAFMDEFFSEIEETRLNIDKISEHVEEAKKLYSIILSAPIPEPKTKDDLEQLTTEIKKRANNVRNKLKSMEKHIEEDEVRSSADLRIRKSQHSVLSRKFVEVMTKYNEAQVDFRERSKGRIQRQLEITGKKTTDEEAAEMLESGNPAIFTSGIIDSQISKQALSEIEGRHKDIVRLESSIKELHDMFMDIAMLVENQGEMLDNIELNVMHTVDHVEKARDETKRAMKYQGQARKKLI
notes: syntaxin 3 (Stx3), rat, cytoplasmic region, residues 1-265, with LE165/166AA; Made by site-directed mutagenesis in the Stx3 (1–265) pGEX-4T-3 plasmid; also called open-conformation mutant (LE165/166AA); source: E. coli Rosetta 2, purified (glutathione agarose, eluted with glutathione, dialyzed)

Columns and labels:
[1] = target: T1, ubiquitin on ubiquitin-coated agarose beads (UniProt P0CG53 1-76); experiment: pull-down; ubiquitin-coated agarose beads with 1 µM purified GST-fusion protein in Buffer A (25 mM HEPES–KOH pH 7.4, 125 mM potassium acetate, 2.5 mM magnesium acetate, 5 mM EGTA) + 1% FBS, 2 h at room temperature; uncoated CL4B beads as control; immunoblot with anti-GST or anti-Stx3; conditions: both partners purified
T1 construct: ubiquitin, the cut product of the ubiquitin precursors; Coupled to agarose; also called ubiquitin-coated beads; ubiquitin-coated (U) agarose beads; source: bought: Millipore-Sigma (ubiquitin-coated agarose)

[2] = target: T2, Purified bovine ubiquitin (bovine, UniProt P0CG53 1-76); experiment: SPR; Biacore 2000, room temperature, HBS-EP buffer (10 mM HEPES pH 7.4, 150 mM NaCl, 3 mM EDTA, 0.005% Tween-20); GST-fusion proteins captured on a CM5 chip with a GST capture kit, free ubiquitin flowed over; conditions: both partners purified
T2 construct: ubiquitin, bovine, the cut product of the ubiquitin precursors; also called free ubiquitin; mono-ubiquitin in solution; source: bought: Millipore-Sigma (U6253)

Binder | fold change of pull-down against the entire Stx3 cytoplasmic domain [1] [fold] | Kd [2] [µM] | fold change of pull-down against wild-type Stx3 [1] [fold]
B1 | 3.78 | 1360 | –
B2 | – | – | 1.73
